Measured values from patent US20240368549A1, “ENHANCEMENT OF HEMATOPOIETIC STEM CELL AND HEMATOPOIETIC PROGENITOR CELL EXPANSION WITH AGENTS THAT ACTIVATE TAM RECEPTORS” (CANADIAN BLOOD SERVICES, priority 2021, published 2024).
Entries after “also recorded” stand apart in the source; their conditions may differ.

Tests used:
[1] = tested on: Umbilical cord blood (UCB) CD34+ cells; experiment: Expansion of UCB CD34+ cells cultured 14 days with SCACs, GAS6 or inhibitors; format: cell-based, human
Method: (§1) Umbilical cord blood (UCB) CD34+ cells were cultured in StemSpan™ SFEM (StemCell Technologies) in the presence of different SCACs for 14-days and net fold expansion of TNC, CD34+ cells CD34+CD45RA− cells, and EPCR^High was calculated based on respective population on day-0 (e.g. net TNC day 14/TNC day 0). Control STFL cultures consisted of the same complete media without small molecules. Unless indicated otherwise, all cultures were supplemented with Stem Cell Factor, Flt-3 and Thrombopoietin at 100 ng/ml. All cultures also contained 10 μg/mL low-density lipoprotein (LDL, Stem Ce, Technologies) and 1% penicillin-streptomycin (Gibco). […] The improvement in HSPC expansion provided by the SCACs is exemplified with X2A in FIGS. 2A-2D. […] Culture done with adult CD34+ mobilized peripheral blood stem cells (mPBSC, CAT #70060.2, Stem Cell Technologies) also contained IL-6 (100 ng/ml) as additional cytokine (FIG. 9).
To investigate the impact of AA2P and/or SCACs on expression of AXL and its activation level, HSPC were culture in STFL with or without AA2P or the indicated SCAC for 14 days (FIG. 4F). In some cultures, the AXL kinase inhibitor Bemcentinib or a neutralizing antibody was added to cultures at day 10, and the impact on HSPC expansion was investigated in indicated cultures at day 14. Proteins level were investigated by western blot analysis or intracellular flowcytometry analysis following common procedures with anti-AXL [Goat IgG anti-AXL (Cat #AF154) or anti-p-AXL (Cat #AF2228) or anti-GAS6 (rabbit IgG, Cat #67202S, Cell Signaling Tech.) and appropriate secondary antibodies, R&D systems). […] AXL is expressed by CD34+CD45RA− HSPCs cultured in both X2A and C6 culture (FIG. 5A). […] This support that, even in the absence of exogenous GAS6 , AA2P alone or in combination with other small molecule (i.e. stem cell agonist such as UM171, SR1 . . . ) is capable of driving enough increased endogenous expression of GAS6 and AXL to support the improved expansion of CD34+CD45RA− HSPCs through para-and/or autocrine activation of AXL on HSPCs.
(§2) In each case, GAS6 was added to the cultures from days 7 to 14.
Cell expansion measured after 14 days of culture in STFL culture (FIG. 7A) and in X2A cultures (FIG. 7B). Indeed, as shown therein, the rise in cell growth (TNC) and expansion of HSPC subsets (CD34+ cells, CD34+CD45RA−, EPCRHigh cells) induced by GAS6 can be accomplished by adding GAS6 in cultures at various time point, as early as day 0 and as late as day 10, preferably at day 7.

NSG mice = experiment: Engraftment in NSG mice of X2A-expanded cells with GAS6 or GAS6 neutralizing antibody; format: in vivo
Method: Mice group were transplanted with the progeny of 750 expanded CD34+ cells after 14 days of culture. The groups were; […]-expanded cells, […]-expanded cells supplemented with GAS6 (10 ng/ml) or a GAS6 neutralizing antibody (GAS6 Ab) from day-10 to day-14. As shown therein, addition of GAS6 to CB HSPC expansion cultures improves the engraftment achieved from the ex vivo expanded HSPCs.

[2] = tested on: CD34+ mobilized peripheral blood stem cells (mPBSC); experiment: Expansion of adult mobilized peripheral blood stem cell (mPBSC) cultures; format: cell-based, human; conditions: GAS6 10 ng/ml, day 7 to 14; STFL and SCAC cultures
Method: as §1, §2

Molecule: Nc1nc(Nc2ccc3c(c2)CC[C@@H](N2CCCC2)CC3)nn1-c1cc2c(nn1)-c1ccccc1CCC2 [Bemcentinib, reference compound]
- effect of AXL kinase inhibition on ability of X2A and C6 to expand HSPCs ([1]; added at day 10, read at day 14, normalized to DMSO): reduction; also recorded: decreased

Molecule: Nc1nc(=O)n(-c2cccc(-c3ccccc3)c2)cc1Cl [Bobcat339, reference compound]
- effect of TET inhibition on cell growth ([1]; 30 μM, day-10 to day-14): reduced cell growth

B1: GAS6: natural ligand of the AXL receptor, growth arrest-specific protein 6, added to cultures at 10 ng/mL (protein, UniProt Q14393 31-678, looked up)
Growth arrest-specific …: ALLPAREATQFLRPRQRRAFQVFEEAKQGHLERECVEELCSREEAREVFENDPETDYFYPRYLDCINKYGSPYTKNSGFATCVQNLPDQCTPNPCDRKGTQACQDLMGNFFCLCKAGWGGRLCDKDVNECSQENGGCLQICHNKPGSFHCSCHSGFELSSDGRTCQDIDECADSEACGEARCKNLPGSYSCLCDEGFAYSSQEKACRDVDECLQGRCEQVCVNSPGSYTCHCDGRGGLKLSQDMDTCEDILPCVPFSVAKSVKSLYLGRMFSGTPVIRLRFKRLQPTRLVAEFDFRTFDPEGILLFAGGHQDSTWIVLALRAGRLELQLRYNGVGRVTSSGPVINHGMWQTISVEELARNLVIKVNRDAVMKIAVAGDLFQPERGLYHLNLTVGGIPFHEKDLVQPINPRLDGCMRSWNWLNGEDTTIQETVKVNTRMQCFSVTERGSFYPGSGFAFYSLDYMRTPLDVGTESTWEVEVVAHIRPAADTGVLFALWAPDLRAVPLSVALVDYHSTKKLKKQLVVLAVEHTALALMEIKVCDGQEHVVTVSLRDGEATLEVDGTRGQSEVSAAQLQERLAVLERHLRSPVLTFAGGLPDVPVTSAPVTAFYRGCMTLEVNRRLLDLDEAAYKHSDITAHSCPPVEPAAA
- levels of human platelets and human % CD45+ leucocytes (NSG mice; X2A cultures + GAS6 10 ng/ml, 3-weeks and 16-weeks post-transplant): significantly superior
- long-term human BM engraftment (% CD45+) (NSG mice; X2A cultures, 18-weeks after transplantation): improved
- distribution of human lineages downstream HSC (NSG mice; X2A+ GAS6 group, BM): normal distribution
- proportion of CD34+ HSPC (NSG mice; X2A+ GAS6 mice, BM): significantly superior
- human CFU (NSG mice; X2A+ GAS6 primary transplants): significantly superior
- net number of human CD34+ BM cells (NSG mice; X2A+ GAS6 primary transplants): significantly superior
- serial engraftment activity in secondary transplants (NSG mice; primary X2A+ GAS6 grafts vs X2A grafts, 12-weeks): superior serial engraftment activity
- HSPC expansion with GAS6 in X2A, X2B, STFL or SM6 culture ([1]; FIGS. 5D-5F): improved HSPC expansion
- expansion of TNC and HSPC subsets, valproic acid (VPA)-containing cultures ([1]; GAS6 10 ng/mL, days 7 to 14): improved
- expansion of the CB HSPC population, GAS6 with single stem cell agonists or agonist cocktails ([1]; GAS6 10 ng/mL, days 7 to 14): strongly increases
- expansion of HSPC subsets, control STFL cultures ([1]; GAS6 10 ng/ml, days 7 to 14): improved
- expansion of TNC and HSPC subsets, AA2P-containing cultures ([1]; GAS6 10 ng/ml, days 7 to 14): improved
- expansion of TNC and HSPC subsets, C6-containing cultures ([1]; GAS6 10 ng/ml, days 7 to 14): improved
- expansion of TNC and HSPC subsets, SM6-containing cultures ([1]; GAS6 10 ng/ml, days 7 to 14): improved
- expansion of TNC and HSPC subsets, SR1-containing cultures ([1]; GAS6 10 ng/ml, days 7 to 14): improved
- expansion of TNC and HSPC subsets, UM171-containing cultures ([1]; GAS6 10 ng/ml, days 7 to 14): improved
- expansion of TNC and HSPC subsets, X2A-containing cultures ([1]; GAS6 10 ng/ml, days 7 to 14): improved
- expansion of CB TNC and HSPC subsets, GAS6 added at different time point ([1]; added day 0, 4, 7 or 10, STFL with or without X2A, day 14): superior expansion
- HSPC expansion, exogenous GAS6 added to SCAC and C6 cultures ([1]; compared to SCACs and C6 alone, 10 ng/mL): further improved HSPC expansion
- expansion of TNC and HSPC subsets in mPBSC cultures with GAS6 [2]: further increased
